B1: SEQ ID NO 8: Pseudomonas aeruginosa ω-transaminase, Genbank Accession No. AAG08191.1, N-terminal His-tagged (protein, listed as Pseudomonas aeruginosa)
chain: MNARLHATSPLGDADLVRADQAHYMHGYHVFDDHRVNGSLNIAAGDGAYIYDTAGNRYLDAVGGMWCTNIGLGREEMARTVAEQTRLLAYSNPFCDMANPRAIELCRKLAELAPGDLDHVFLTTGGSTAVDTAIRLMHYYQNCRGKRAKKHVITRINAYHGSTFLGMSLGGKSADRPAEFDFLDERIHHLACPYYYRAPEGLGEAEFLDGLVDEFERKILELGADRVGAFISEPVFGSGGVIVPPAGYHRRMWELCQRYDVLYISDEVVTSFGRLGHFFASQAVFGVQPDIILTAKGLTSGYQPLGACIFSRRIWEVIAEPDKGRCFSHGFTYSGHPVACAAALKNIEIIEREGLLAHADEVGRYFEERLQSLRDLPIVGDVRGMRFMACVEFVADKASKALFPESLNIGEWVHLRAQKRGLLVRPIVHLNVMSPPLILTREQVDTVVRVLRESIEETVEDLVRAGHR
modifications: N-terminal His tag
B2: SEQ ID NO 7: Chromobacterium violaceum ω-transaminase, Genbank Accession No. AAQ59697.1, N-terminal His-tagged (protein, listed as Chromobacterium violaceum)
chain: MQKQRTTSQWRELDAAHHLHPFTDTASLNQAGARVMTRGEGVYLWDSEGNKIIDGMAGLWCVNVGYGRKDFAEAARRQMEELPFYNTFFKTTHPAVVELSSLLAEVTPAGFDRVFYTNSGSESVDTMIRMVRRYWDVQGKPEKKTLIGRWNGYHGSTIGGASLGGMKYMHEQGDLPIPGMAHIEQPWWYKHGKDMTPDEFGVVAARWLEEKILEIGADKVAAFVGEPIQGAGGVIVPPATYWPEIERICRKYDVLLVADEVICGFGRTGEWFGHQHFGFQPDLFTAAKGLSSGYLPIGAVFVGKRVAEGLIAGGDFNHGFTYSGHPVCAAVAHANVAALRDEGIVQRVKDDIGPYMQKRWRETFSRFEHVDDVRGVGMVQAFTLVKNKAKRELFPDFGEIGTLCRDIFFRNNLIMRACGDHIVSAPPLVMTRAEVDEMLAVAERCLEEFEQTLKARGLA
modifications: N-terminal His tag
B3: SEQ ID NO 12: Vibrio fluvialis ω-transaminase, Genbank Accession No. AEA39183.1, N-terminal His-tagged (protein, listed as Vibrio fluvialis)
chain: MNKPQSWEARAETYSLYGFTDMPSLHQRGTVVVTHGEGPYIVDVNGRRYLDANSGLWNMVAGFDHKGLIDAAKAQYERFPGYHAFFGRMSDQTVMLSEKLVEVSPFDSGRVFYTNSGSEANDTMVKMLWFLHAAEGKPQKRKILTRWNAYHGVTAVSASMTGKPYNSVFGLPLPGFVHLTCPHYWRYGEEGETEEQFVARLARELEETIQREGADTIAGFFAEPVMGAGGVIPPAKGYFQAILPILRKYDIPVISDEVICGFGRTGNTWGCVTYDFTPDAIISSKNLTAGFFPMGAVILGPELSKRLETAIEAIEEFPHGFTASGHPVGCAIALKAIDVVMNEGLAENVRRLAPRFEERLKHIAERPNIGEYRGIGFMWALEAVKDKASKTPFDGNLSVSERIANTCTDLGLICRPLGQSVVLCPPFILTEAQMDEMFDKLEKALDKVFAEVA
modifications: N-terminal His tag
B4: SEQ ID NO 6: Segniliparus rotundus carboxylate reductase, Genbank Accession No. ADG98140.1, N-terminal His-tagged (protein, listed as Segniliparus rotundus)
chain: MTQSHTQGPQASAAHSRLARRAAELLATDPQAAATLPDPEVVRQATRPGLRLAERVDAILSGYADRPALGQRSFQTVKDPITGRSSVELLPTFDTITYRELRERATAIASDLAHHPQAPAKPGDFLASIGFISVDYVAIDIAGVFAGLTAVPLQTGATLATLTAITAETAPTLFAASIEHLPTAVDAVLATPSVRRLLVFDYRAGSDEDREAVEAAKRKIADAGSSVLVDVLDEVIARGKSAPKAPLPPATDAGDDSLSLLIYTSGSTGTPKGAMYPERNVAHFWGGVWAAAFDEDAAPPVPAINITFLPLSHVASRLSLMPTLARGGLMHFVAKSDLSTLFEDLKLARPTNLFLVPRVVEMLYQHYQSELDRRGVQDGTREAEAVKDDLRTGLLGGRILTAGFGSAPLSAELAGFIESLLQIHLVDGYGSTEAGPVWRDGYLVKPPVTDYKLIDVPELGYFSTDSPHPRGELAIKTQTILPGYYKRPETTAEVFDEDGFYLTGDVVAQIGPEQFAYVDRRKNVLKLSQGEFVTLAKLEAAYSSSPLVRQLFVYGSSERSYLLAVIVPTPDALKKFGVGEAAKAALGESLQKIARDEGLQSYEVPRDFIIETDPFTVENGLLSDARKSLRPKLKEHYGERLEAMYKELADGQANELRDIRRGVQQRPTLETVRRAAAAMLGASAAEIKPDAHFTDLGGDSLSALTFSNFLHDLFEVDVPVGVIVSAANTLGSVAEHIDAQLAGGRARPTFATVHGKGSTTIKASDLTLDKFIDEQTLEAAKHLPKPADPPRTVLLTGANGWLGRFLALEWLERLAPAGGKLITIVRGKDAAQAKARLDAAYESGDPKLAGHYQDLAATTLEVLAGDFSEPRLGLDEATWNRLADEVDFISHPGALVNHVLPYNQLFGPNVAGVAEIIKLAITTRIKPVTYLSTVAVAAGVEPSALDEDGDIRTVSAERSVDEGYANGYGNSKWGGEVLLREAHDRTGLPVRVFRSDMILAHQKYTGQVNATDQFTRLVQSLLATGLAPKSFYELDAQGNRQRAHYDGIPVDFTAESITTLGGDGLEGYRSYNVFNPHRDGVGLDEFVDWLIEAGHPITRIDDYDQWLSRFETSLRGLPESKRQASVLPLLHAFARPGPAVDGSPFRNTVFRTDVQKAKIGAEHDIPHLGKALVLKYADDIKQLGLL
modifications: N-terminal His tag
B5: SEQ ID NO 9: Pseudomonas syringae ω-transaminase, Genbank Accession No. AAY39893.1, N-terminal His-tagged (protein, listed as Pseudomonas syringae)
chain: MSANNPQTLEWQALSSEHHLAPFSDYKQLKEKGPRIITRAEGVYLWDSEGNKILDGMSGLWCVAIGYGREELADAASKQMRELPYYNLFFQTAHPPVLELAKAISDIAPEGMNHVFFTGSGSEGNDTMLRMVRHYWALKGQPNKKTIISRVNGYHGSTVAGASLGGMTYMHEQGDLPIPGVVHIPQPYWFGEGGDMTPDEFGIWAAEQLEKKILELGVENVGAFIAEPIQGAGGVIVPPDSYWPKIKEILSRYDILFAADEVICGFGRTSEWFGSDFYGLRPDMMTIAKGLTSGYVPMGGLIVRDEIVAVLNEGGDFNHGFTYSGHPVAAAVALENIRILREEKIVERVRSETAPYLQKRLRELSDHPLVGEVRGVGLLGAIELVKDKTTRERYTDKGAGMICRTFCFDNGLIMRAVGDTMIIAPPLVISFAQIDELVEKARTCLDLTLAVLQG
modifications: N-terminal His tag

Legend:
Assay type in all cases: biochemical
[1] = ω-transaminase activity, 6-aminohexanoate to adipate semialdehyde (reverse direction); settings: cell free extract, 10 mM 6-aminohexanoate, 10 mM pyruvate, pH 7.5, 25° C., 24 h, RP-HPLC
Procedure: (§1) A nucleotide sequence encoding a His-tag was added to the nucleic acid sequences from Chromobacterium violaceum, Pseudomonas aeruginosa, Pseudomonas syringae, Rhodobacter sphaeroides, and Vibrio fluvialis encoding the ω-transaminases of SEQ ID NOs: 7, 8, 9, 10 and 12, respectively (see FIG. 6) such that N-terminal HIS tagged ω-transaminases could be produced. Each of the resulting modified genes was cloned into a pET21a expression vector under control of the T7 promoter and each expression vector was transformed into a BL21[DE3] E. coli host. The resulting recombinant E. coli strains were cultivated at 37° C. in a 250 mL shake flask culture containing 50 mL LB media and antibiotic selection pressure, with shaking at 230 rpm. Each culture was induced overnight at 16° C. using 1 mM IPTG.
(§2) The pellet from each induced shake flask culture was harvested via centrifugation. Each pellet was resuspended and lysed via sonication. The cell debris was separated from the supernatant via centrifugation and the cell free extract was used immediately in enzyme activity assays.
Enzyme activity assays in the reverse direction (i.e., 6-aminohexanoate to adipate semialdehyde) were performed in a buffer composed of a final concentration of 50 mM HEPES buffer (pH=7.5), 10 mM 6-aminohexanoate, 10 mM pyruvate and 100 μM pyridoxyl 5′ phosphate. Each enzyme activity assay reaction was initiated by adding cell free extract of the ω-transaminase gene product or the empty vector control to the assay buffer containing the 6-aminohexanoate and incubated at 25° C. for 24 h, with shaking at 250 rpm. The formation of L-alanine from pyruvate was quantified via RP-HPLC.

[2] = ω-transaminase activity, adipate semialdehyde to 6-aminohexanoate (forward direction); settings: cell free extract, 10 mM adipate semialdehyde, 10 mM L-alanine, pH 7.5, 25° C., 4 h, RP-HPLC
Procedure: as §1, §2
Enzyme activity in the forward direction (i.e., adipate semialdehyde to 6-aminohexanoate) was confirmed for the transaminases of SEQ ID NO 7, SEQ ID NO 8, SEQ ID NO 9, SEQ ID NO 10 and SEQ ID NO 12. Enzyme activity assays were performed in a buffer composed of a final concentration of 50 mM HEPES buffer (pH=7.5), 10 mM adipate semialdehyde, 10 mM L-alanine and 100 μM pyridoxyl 5′ phosphate. Each enzyme activity assay reaction was initiated by adding a cell free extract of the ω-transaminase gene product or the empty vector control to the assay buffer containing the adipate semialdehyde and incubated at 25° C. for 4 h, with shaking at 250 rpm. The formation of pyruvate was quantified via RP-HPLC.

[3] = carboxylate reductase activity, adipate semialdehyde to hexanedial; settings: purified enzyme with sfp phosphopantetheine transferase, 2 mM adipate semialdehyde, pH 7.5, room temperature, 20 min
Procedure: The N-terminal His-tagged carboxylate reductase of SEQ ID NO 6 (see Example 2 and FIG. 6) was assayed using adipate semialdehyde as substrate. The enzyme activity assay was performed in triplicate in a buffer composed of a final concentration of 50 mM HEPES buffer (pH=7.5), 2 mM adipate semialdehyde, 10 mM MgCl2, 1 mM ATP and 1 mM NADPH. The enzyme activity assay reaction was initiated by adding purified carboxylate reductase and phosphopantetheine transferase or the empty vector control to the assay buffer containing the adipate semialdehyde and then incubated at room temperature for 20 min. The consumption of NADPH was monitored by absorbance at 340 nm.

| Molecule | acceptance of 6-aminohexanoate as substrate (conversion of pyruvate to L-alanine vs empty vector control) [1] | acceptance of adipate semialdehyde as substrate (conversion of L-alanine to pyruvate vs empty vector control) [2] | acceptance of adipate semialdehyde as substrate (NADPH consumption, absorbance at 340 nm, vs empty vector control) [3] |
| --- | --- | --- | --- |
| SEQ ID NO 10: Rhodobacter sphaeroides ω-transaminase, Genbank Accession No. ABA81135.1, N-terminal His-tagged | accepted 6-aminohexanote as substrate | accepted adipate semialdehyde as substrate | – |
| B1 | – | accepted adipate semialdehyde as substrate | – |
| B2 | accepted 6-aminohexanote as substrate | accepted adipate semialdehyde as substrate | – |
| B3 | accepted 6-aminohexanote as substrate | accepted adipate semialdehyde as substrate | – |
| B4 | – | – | accepted adipate semialdehyde as substrate |
| B5 | accepted 6-aminohexanote as substrate | accepted adipate semialdehyde as substrate | – |
